For 4 substances, EC50 results are on record in patent US20100273704A1.

The target in the test is BCL-XL ΔC [GST: P08515]. Kind of test: fluorescence polarization.
For BAD SAHBA, the EC50 (as a rule, the concentration needed to bring the measured effect to its halfway point) came to 40.2 nM.
Turning to BAD SAHBA(S→D), the EC50 is above 10000 nM.
As to BID SAHBA, the EC50 was found to be 35.3 nM.
In turn, BAD SAHBA(L,D→A) had an EC50 of 333 nM.
